Source: patent US20210316007A1 (DUKE UNIVERSITY, published 2021)
Residue numbers refer to the chain shown, from its start.

Legend:
mouse serum albumin [1] = target: T1, mouse serum albumin (mouse, UniProt P07724 25-608); assay: ITC, MSA titrated into CP-DOX micelles, PBS pH 7.4, 37 °C
T1 construct: also called MSA; mouse albumin

human serum albumin [2] = target: T2, human serum albumin (human, UniProt P02768 25-609); assay: ITC, HSA titrated into ELP, PBS pH 7.4, 37 °C; Example 2 ITC series (FIG. 3A), naked ELP control
T2 construct: also called HSA; human albumin

human serum albumin [3] = target: T2, human serum albumin; assay: ITC, HSA titrated into ELP, PBS pH 7.4, 37 °C; Example 2 ITC series (FIG. 3A), naked ELP control; weak µM best-fit KD that the text calls no specific affinity
mouse serum albumin [4] = target: T1, mouse serum albumin; assay: ITC (Nano ITC), albumin titrated into construct, PBS, 37 °C; PTX-example ITC series (Table 10), CP without ABD and without drug; µM fit
mouse serum albumin [5] = target: T1, mouse serum albumin; assay: ITC, MSA titrated into ELP, PBS pH 7.4, 37 °C; Example 2 ITC series (FIG. 4A), naked ELP control; fitted N with an error larger than the value
mouse serum albumin [6] = target: T1, mouse serum albumin; assay: ITC, MSA titrated into ELP, PBS pH 7.4, 37 °C; Example 2 ITC series (FIG. 4A), naked ELP control; weak µM best-fit KD that the text calls no specific affinity
human serum albumin [7] = target: T2, human serum albumin; assay: ITC, HSA titrated into ABDN-ELP, PBS pH 7.4, 37 °C
Procedure: (§1) The experiments were performed in phosphate buffered saline (pH 7.4) at 37° C.

mouse serum albumin [8] = target: T1, mouse serum albumin; assay: ITC, MSA titrated into ABDN-ELP, PBS pH 7.4, 37 °C
Procedure: as §1

mouse serum albumin [9] = target: T1, mouse serum albumin; assay: ITC (Nano ITC), albumin titrated into construct, PBS, 37 °C
human serum albumin [10] = target: T2, human serum albumin; assay: as above
mouse serum albumin [11] = target: T1, mouse serum albumin; assay: ITC, MSA titrated into ABDH-ELP, PBS pH 7.4, 37 °C
Procedure: as §1

mouse serum albumin [12] = target: T1, mouse serum albumin; assay: ITC, MSA titrated into ABDH-CP-DOX micelles, PBS pH 7.4, 37 °C
Procedure: as §1

mouse serum albumin [13] = target: T1, mouse serum albumin; assay: ITC (Nano ITC), albumin titrated into micelles, PBS, 37 °C
Procedure: (§2) For PTX conjugates, ITC was conducted using a Nano ITC system (TA Instruments, Utah, USA). […] For background correction, PBS (in the cell) was titrated with albumin (in the syringe) at the same concentrations and conditions. Background was subtracted from the final curves and the binding and thermodynamic parameters binding constant (KD), number of binding sites (n), and enthalpy (ΔH)—were computed by non-linear fitting to an independent-binding site model using TA Instruments NanoAnalyze software.

human serum albumin [14] = target: T2, human serum albumin; assay: as above
Procedure: as §2

mouse serum albumin [15] = target: T1, mouse serum albumin; assay: ITC, MSA titrated into ABDN-CP-DOX micelles, PBS pH 7.4, 37 °C
Procedure: as §1

T1 sequence (P07724 25-608 limits assumed): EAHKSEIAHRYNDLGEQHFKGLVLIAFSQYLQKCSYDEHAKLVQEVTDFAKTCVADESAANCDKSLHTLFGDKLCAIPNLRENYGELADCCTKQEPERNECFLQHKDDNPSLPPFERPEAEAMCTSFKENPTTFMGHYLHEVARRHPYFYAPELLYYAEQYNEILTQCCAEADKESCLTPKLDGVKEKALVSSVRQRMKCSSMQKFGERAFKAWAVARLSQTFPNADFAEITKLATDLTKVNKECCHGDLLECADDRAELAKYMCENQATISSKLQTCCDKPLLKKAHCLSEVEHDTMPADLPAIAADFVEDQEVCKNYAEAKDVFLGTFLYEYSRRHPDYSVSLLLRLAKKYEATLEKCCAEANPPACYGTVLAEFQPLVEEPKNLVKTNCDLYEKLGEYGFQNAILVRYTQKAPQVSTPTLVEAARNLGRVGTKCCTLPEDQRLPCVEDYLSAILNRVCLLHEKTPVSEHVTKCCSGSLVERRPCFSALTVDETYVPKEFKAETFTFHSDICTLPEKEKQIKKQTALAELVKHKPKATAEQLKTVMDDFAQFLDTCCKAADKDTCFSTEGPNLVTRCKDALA

CP-DOX micelles (doxorubicin-conjugated chimeric polypeptide without ABD)
Kd (mouse serum albumin [1]): 91900 nM | binding stoichiometry N (mouse serum albumin [1]): 0.0386

ELP (naked elastin-like polypeptide with no ABD at its N-terminus)
binding stoichiometry N (human serum albumin [2]): 0.75 | Kd (human serum albumin [3]): 69000 nM | Kd (mouse serum albumin [4]): 3500 nM | binding stoichiometry N (mouse serum albumin [5]): 0.152 | Kd (mouse serum albumin [6]): 71400 nM

B1: ABDN-ELP (albumin binding domain N fused to the N-terminus of ELP) (designed binder)
chain: LAEAKVLANRELDKYGVSDYYKNLINNAKTVEGVKALIDEILAALPVPGAGVPGAGVPGAGVPGAGVPGAGVPGAGVPGAGVPGAGVPGAGVPGAGVPGAGVPGAGVPGAGVPGAGVPGAGVPGAGVPGAGVPGAGVPGAGVPGAGVPGAGVPGAGVPGAGVPGAGVPGAGVPGAGVPGAGVPGAGVPGAGVPGAGVPGAGVPGAGVPGAGVPGAGVPGAGVPGAGVPGAGVPGAGVPGAGVPGAGVPGAGVPGAGVPGAGVPGAGVPGAGVPGAGVPGAGVPGAGVPGAGVPGAGVPGAGVPGAGVPGAGVPGAGVPGAGVPGAGVPGAGVPGAGVPGAGVPGAGVPGAGVPGAGVPGAGVPGAGVPGAGVPGAGVPGAGVPGAGVPGAGVPGAGVPGAGVPGAGVPGAGVPGAGVPGAGVPGAGVPGAGVPGAGVPGAGVPGAGVPGAGVPGAGVPGAGVPGAGVPGAGVPGAGVPGAGVPGAGVPGAGVPGAGVPGAGVPGAGVPGAGVPGAGVPGAGVPGAGVPGAGVPGAGVPGAGVPGAGVPGAGVPGAGVPGAGVPGAGVPGAGVPGAGVPGAGVPGAGVPGAGVPGAGVPGAGVPGAGVPGAGVPGAGVPGAGVPGAGVPGAGVPGAGVPGAGVPGAGVPGAGVPGAGVPGAGVPGAGVPGAGVPGAGVPGAGVPGAGVPGAGVPGAGVPGAGVPGAGVPGAGVPGAGVPGAGVPGAGVPGAGVPGAGVPGAGVPGAGVPGAGVPGAGVPGAGVPGAGVPGAGVPGAGCGGCGGCGGCGGCGGCGGCGGCGG
notes: Unconjugated monomer, 68.5 kDa by SDS-PAGE; also called ABDN-CP; ABD-CP
Kd (human serum albumin [7]): 48.4 nM | Kd (mouse serum albumin [8]): 66.4 nM | Kd (mouse serum albumin [9]): 16.3 nM | Kd (human serum albumin [10]): 6.47 nM

B2: ABDH-ELP (albumin binding domain H, engineered variant of ABDN, fused to the N-terminus of ELP) (designed binder)
chain: LAEAKVLANRELDKYGVSDFYKRLINKAKTVEGVEALKLHILAALPVPGAGVPGAGVPGAGVPGAGVPGAGVPGAGVPGAGVPGAGVPGAGVPGAGVPGAGVPGAGVPGAGVPGAGVPGAGVPGAGVPGAGVPGAGVPGAGVPGAGVPGAGVPGAGVPGAGVPGAGVPGAGVPGAGVPGAGVPGAGVPGAGVPGAGVPGAGVPGAGVPGAGVPGAGVPGAGVPGAGVPGAGVPGAGVPGAGVPGAGVPGAGVPGAGVPGAGVPGAGVPGAGVPGAGVPGAGVPGAGVPGAGVPGAGVPGAGVPGAGVPGAGVPGAGVPGAGVPGAGVPGAGVPGAGVPGAGVPGAGVPGAGVPGAGVPGAGVPGAGVPGAGVPGAGVPGAGVPGAGVPGAGVPGAGVPGAGVPGAGVPGAGVPGAGVPGAGVPGAGVPGAGVPGAGVPGAGVPGAGVPGAGVPGAGVPGAGVPGAGVPGAGVPGAGVPGAGVPGAGVPGAGVPGAGVPGAGVPGAGVPGAGVPGAGVPGAGVPGAGVPGAGVPGAGVPGAGVPGAGVPGAGVPGAGVPGAGVPGAGVPGAGVPGAGVPGAGVPGAGVPGAGVPGAGVPGAGVPGAGVPGAGVPGAGVPGAGVPGAGVPGAGVPGAGVPGAGVPGAGVPGAGVPGAGVPGAGVPGAGVPGAGVPGAGVPGAGVPGAGVPGAGVPGAGVPGAGVPGAGVPGAGVPGAGVPGAGVPGAGVPGAGVPGAGVPGAGVPGAGVPGAGVPGAGVPGAGCGGCGGCGGCGGCGGCGGCGGCGG
notes: Unconjugated monomer, 68.6 kDa by SDS-PAGE; also called ABDH-CP
Kd (mouse serum albumin [11]): 5.19 nM

B3: ABDH-CP-DOX micelles (doxorubicin-conjugated ABDH-chimeric polypeptide) (designed binder)
chain: B2 chain
notes: Self-assembled micelle; aggregates at 37 °C without albumin
Kd (mouse serum albumin [12]): 66.1 nM

B4: ABD-CP-PTX micelles (paclitaxel-conjugated ABD-chimeric polypeptide) (designed binder)
chain: B2 chain with F20Y, R23N, K27N, E35K, K38I, L39D, H40E
notes: Self-assembled micelle; also called ABDN-CP-PTX
Kd (mouse serum albumin [13]): 4.37 nM | Kd (human serum albumin [14]): 5.58 nM

B5: ABDN-CP-DOX micelles (doxorubicin-conjugated ABDN-chimeric polypeptide) (designed binder)
chain: B2 chain with F20Y, R23N, K27N, E35K, K38I, L39D, H40E
notes: Self-assembled micelle; also called ABD-CP-DOX
Kd (mouse serum albumin [15]): 318 nM
